How the values were obtained:
purified protein [1] = substrate: NC(=O)C1=CN([C@@H]2O[C@H](COP(=O)(O)OP(=O)(O)OC[C@H]3O[C@@H](n4cnc5c(N)ncnc54)[C@H](O)[C@@H]3O)[C@@H](O)[C@H]2O)C=CC1; experiment: purified protein; format: biochemical, Burkholderia gladioli; settings: apparent, COBE (ethyl 4-chloro-3-oxobutanoate) 50 mM, NADH 0.01-0.5 mM, pH 6.5, 40 °C, varied: cofactor
purified protein [2] = substrate: NC(=O)C1=CN([C@@H]2O[C@H](COP(=O)(O)OP(=O)(O)OC[C@H]3O[C@@H](n4cnc5c(N)ncnc54)[C@H](OP(=O)(O)O)[C@@H]3O)[C@@H](O)[C@H]2O)C=CC1; experiment: purified protein; format: biochemical, Burkholderia gladioli; settings: apparent, COBE (ethyl 4-chloro-3-oxobutanoate) 50 mM, NADPH 0.01-0.5 mM, pH 6.5, 40 °C, varied: cofactor

B1: BgADH3 (Burkholderia gladioli BSR3) (protein)
chain: MSETNSRRDFLRHAAAGTAGVAVAAVPGIAAAADGAPDAMPPLARMRNPHDLYPRAPFARQVQPVPGLASKMVPRPDHGETSYRGSNRLAGRKALVTGGDSGIGRAAAIAFAREGADVAINYLPVEESDAREVVALIRKEGRKCVAIPGDIRTEAFCRQLVERAVAELGGLDVLVSNAGHQQARDDIQDISSEQFEQTMKTNVYAPFWIAKAALPHMPAGSSVILTTSEQAFLPSANLLDYAPTKAANIAFVKALAKQQAPRGIRVNAVAPGATWTPLQTSGGQPPEVIDRFGQDNPTGRPAQPVELAPLYVTLASAESSFSSGQVFGANGATGAA
- Km (purified protein [1]): 58 µM
- Vmax (purified protein [1]): 3.4 µmol/min/mg
- kcat (purified protein [1]): 3.97 s⁻¹
- kcat/Km (purified protein [1]): 68300 M⁻¹ s⁻¹
- Km (purified protein [2]): 81 µM
- Vmax (purified protein [2]): 9.1 µmol/min/mg
- kcat (purified protein [2]): 10.6 s⁻¹
- kcat/Km (purified protein [2]): 131000 M⁻¹ s⁻¹
